From the supplement of paper PMC10567573 come the findings set out here.

± gives the standard deviation.

This data set can be described thus: protein stability index of a GFP-peptide fusion (GPS, HEK-293T) (PSI 1-6); higher = more stable.
Setting [1] is: treatment: DMSO, c terminus: a fixed tail appended.
Setting [2] is: treatment: MLN4924 1 uM, 8 h, c terminus: a fixed tail appended.
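Further: 24-mer peptide tiles fused after GFP, lentivirally expressed, FACS-sorted into six equal bins by GFP/DsRed ratio, decoded by Illumina sequencing, PSI is the read-weighted mean bin number.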

With FSAEFLKVFIPSLFLSHVLALGLG [BNIP3L], the protein stability index by setting is: under setting [1], 3.57 ± 0.21; under setting [2], 2.9 ± 0.93.

For the sequence FSIVSVAAHLALLLLCGTISLRVY [RTN2], the protein stability index under setting [1] amounted to 3.35 ± 0.76 and the protein stability index under setting [2] stood at 3.16 ± 0.8. Taken in the same sequence, the figures for FVDILESDLKDDDAVPPGMESLIS [CDC25B] were 3.55 ± 0.64 and 3.94 ± 0.43. Regarding FVELIGPKLREETAHMLGVRELRI [CABP4], the protein stability index worked out at 2.69 ± 0.88 under setting [1] and 2.14 ± 0.88 under setting [2]. Take FVLGKGRGAAAAGGPQRIPAHRFV [BTBD1]: the protein stability index is 2.3 ± 0.25 under setting [1] and 2.71 ± 0.31 under setting [2]. Regarding FWLGNEALHSLTQAGDYSMRVDLR [TNXB], the protein stability index stood at 2.19 ± 0.71 under setting [1] and 2.44 ± 0.14 under setting [2]. Taken in the same sequence, the figures for GAGHFEVVKLLVSHGANVNHTTVT [FEM1B] were 2.23 ± 0.51 and 2.26 ± 0.2. Taken in the same sequence, the figures for GARDGIRYLEAEFKKGNRYIRCQK [SMG5] were 3.14 ± 0.3 and 3.57 ± 0.32. As to GAREEDLDAVEAQIGCKLPDDYRC [FBXO3], the protein stability index was determined as 5.25 ± 0.073 under setting [1] and 5.15 ± 0.12 under setting [2]. Take GAVIEVFGHRFIILDTDEYVLKYM [EFHC1]: the protein stability index is 2.5 ± 0.56 under setting [1] and 2.27 ± 0.67 under setting [2]. In turn, GCKGFFRRSVRKNHMYSCRFSRQC [HNF4A] came in with a protein stability index under setting [1] of 2.15 ± 0.18 and a protein stability index under setting [2] of 2.27 ± 0.36.

Take GDELYEQSDEEQDSVKVALLETNP [CLPTM1]: the protein stability index under setting [1] turned out to be 5.37 ± 0.19 and the protein stability index under setting [2] was 5.44 ± 0.17. Taken in the same sequence, the figures for GDLFESTPEVAAAPKPDAAPSIDL [SNAP91] were 5.3 ± 0.29 and 5.27 ± 0.16. The like results for GDQDPLSKIPFKILSGHEHAVSTC [WDR88] were, in that order, 3.31 ± 0.23 and 3.78 ± 0.16.

For GDVMHLSQSPSVSQLSVLSLSGVM [PRAME], the protein stability index runs as follows: under setting [1], 2.43 ± 0.42; under setting [2], 2.28 ± 0.31. Taken in the same sequence, the figures for GDWLLTANGSEIHKHVHFSSSFTS [SLC22A15] were 2.59 ± 0.25 and 2.49 ± 0.36. Taken in the same sequence, the figures for GEEDFSLSATIGSILRELDTSMDG [SERTAD3] were 3.75 ± 0.2 and 3.93 ± 0.44. Turning to GERPYKCSECGESFSRSSRLMSHQ [ZNF263], the protein stability index amounted to 3.25 ± 0.51 under setting [1] and 3.53 ± 0.83 under setting [2].

As for GEYVVTAKAEGFTASTKNCMVGYD [CPXM2], the protein stability index runs as follows: under setting [1], 4.26 ± 0.28; under setting [2], 3.65 ± 0.054. Taken in the same sequence, the figures for GFDTDGLSSAVWPGGETEALTRLE [CRY1] were 4.54 ± 0.73 and 4.76 ± 0.29. Taken in the same sequence, the figures for GFWEEERPFWEEEKTFWKEEKSFW [CCDC70] were 2.85 ± 0.35 and 3.274 ± 0.027. For GGDGSGCSKQSGSFRKFRYGYNNV [ADAMTS4], the protein stability index runs as follows: under setting [1], 3.59 ± 0.3; under setting [2], 3.389 ± 0.008. For the sequence GGFQMHYEKTPFDQLAFIEELFSL [EID1], the protein stability index under setting [1] was determined as 2.12 ± 0.9. Consider GGGGCDRYEPLPPSLPAAGEQDCC [KCNA3], for which the protein stability index runs as follows: under setting [1], 5.02 ± 0.33; under setting [2], 5.06 ± 0.29. For GGHSRERADEPQWSLYPSDSQVSE [CHGB], the protein stability index by setting is: under setting [1], 5.28 ± 0.27; under setting [2], 5.24 ± 0.34. The like results for GGLSPVTNLTVTMDQLQGLGSDYE [CDC25A] were, in that order, 4.24 ± 0.38 and 4.48 ± 0.18. The like results for GGMSHLHTFRATFQEPLYPALRLW [TRIM14] were, in that order, 2.21 ± 0.22 and 2.13 ± 0.091. For the sequence GHGMTPLKVAAESCKADVVELLLS [FEM1B], the protein stability index under setting [1] is 2.29 ± 0.21 and the protein stability index under setting [2] was 2.47 ± 0.34. The like results for GHHERSIMTDLYYLSQTDGAGDWR [FUT8] were, in that order, 3.2 ± 0.35 and 3.12 ± 0.24.

Take GHKEEEDGEGAGPGEQGGGKLVLS [ESRRA]: the protein stability index worked out at 5.3 ± 0.27 under setting [1] and 5.42 ± 0.4 under setting [2].

In the case of GHPYRGASQFLASASSSTTCCEST [IRX6], the protein stability index under setting [1] was 4.24 ± 0.19 and the protein stability index under setting [2] turned out to be 4.3 ± 0.22.

For GIKSKEAEEYRLKEHYLTFEKSRY [PSD2], the protein stability index turned out to be 3.82 ± 0.093 under setting [1] and 3.94 ± 0.31 under setting [2]. The sequence GIVEAMVVCRQLGLGFASNAFQET [LOXL2] returned a protein stability index under setting [2] of 2.393 ± 0.002. GKLKWNLAAVTPHDFIEHILRKLP [CCND2]: the protein stability index by setting is: under setting [1], 2.61 ± 0.38; under setting [2], 2.16 ± 0.18. Consider GKSLLLMTRNDVLTGLQLKLGPAL [SAMD13], for which the protein stability index amounted to 2.27 ± 0.4 under setting [1] and 2.26 ± 0.28 under setting [2]. Taken in the same sequence, the figures for GLPGAEGVEPAPWAQLEAPARLLL [FANCE] were 3.33 ± 0.45 and 3.3 ± 0.05. Taken in the same sequence, the figures for GLSGGALSPLRAASDPLLSSVSPA [TFE3] were 3.91 ± 0.32 and 3.91 ± 0.099.

Turning to GLTKKRTKVQKKSLLLKKPLRVDL [NOP53], the protein stability index is 3.25 ± 0.13 under setting [1] and 3.42 ± 0.35 under setting [2].

For the sequence GMPPAGTGMPMMPQQPVMFAQPMM [SNAP91], the protein stability index under setting [1] was 3.03 ± 0.17 and the protein stability index under setting [2] was 3.2 ± 0.34. Taken in the same sequence, the figures for GNNLLVFGGTGIPFGESNGNGVHV [KLHDC10] were 2.66 ± 0.36 and 2.71 ± 0.41. Taken in the same sequence, the figures for GPPSRGGHMDDGGYSMNFNMSSSR [RBMX] were 4.25 ± 0.32 and 3.96 ± 0.34.

With GQGPKPEADSQEQGHPQTGCECED [GAGE1], the protein stability index is 5.64 ± 0.15 under setting [1] and 5.4 ± 0.31 under setting [2]. With GQPLRPLVPDASKQRLMENTEDWR [PDLIM7], the protein stability index reads like this: under setting [1], 4.54 ± 0.24; under setting [2], 4.72 ± 0.18.

Regarding GQTPLAVSISISGSSRPCLDFLQE [ASB7], the protein stability index stood at 2.83 ± 0.93 under setting [1] and 2.24 ± 0.37 under setting [2]. The like results for GQYATTKGISQTNLITTVTPEKKA [EPB41L3] were, in that order, 5.07 ± 0.2 and 5.11 ± 0.17. On to GRCELARVLHDFGLDGYRGYSLAD [SPACA3], for which the protein stability index under setting [1] amounted to 2.62 ± 0.13 and the protein stability index under setting [2] was 2.35 ± 0.32. In the case of GREKPGPLDFEAYSAAALQEAMKR [FCHO1], the protein stability index was 4.21 ± 0.27 under setting [1] and 4.26 ± 0.18 under setting [2].

For the sequence GRESYIPGICVARVYHGWLFEGLG [SLA], the protein stability index under setting [2] came to 1.8 ± 0.88. As to GRFEQLGKTAASWCLHVNNWLQVS [FSD1], the protein stability index runs as follows: under setting [1], 2.29 ± 0.37; under setting [2], 1.96 ± 0.2. Take GRPIKPPKKDLEDGEVPQHAGKKG [BRD3]: the protein stability index reads like this: under setting [1], 5.41 ± 0.37; under setting [2], 5.55 ± 0.061. As for GRSFREEQCVSFNSHVYNGRTHQW [ADAMTSL2], the protein stability index reads like this: under setting [1], 3.05 ± 0.56; under setting [2], 3.15 ± 0.87.

As to GRWLRSTRFSGSLDRLRETRVAD [PCDHGC5], the protein stability index by setting is: (treatment: DMSO, c terminus: native) 2.62 ± 0.48; (treatment: MLN4924 1 uM, 8 h, c terminus: native) 2.84 ± 0.14. Turning to GSLCSLWFGASVLSLLELLELLLD [SCNN1D], the protein stability index reads like this: under setting [1], 2.17 ± 0.36; under setting [2], 1.91 ± 0.27. As for GSLHAGGARLVAACSAWLCPGLRL [AUH], the protein stability index under setting [2] was 2.43 ± 0.7. For GSMEQVSSHFLEQTLDKKLMSDLR [INTS4], the protein stability index reads like this: under setting [1], 3.72 ± 0.2; under setting [2], 3.73 ± 0.6. In the case of GSRVLHVVQTLYPFSSVTEEELNF [NCK2], the protein stability index amounted to 2.31 ± 0.31 under setting [1] and 2.31 ± 0.22 under setting [2]. Take GSSETETEPPVALAPGPAPTRCLP [ESRRA]: the protein stability index was found to be 5.23 ± 0.28 under setting [1] and 5.16 ± 0.11 under setting [2]. As for GSSGGQQPSGMKEGVKRYEQEHAA [CHCHD6], the protein stability index under setting [1] amounted to 5 ± 0.054 and the protein stability index under setting [2] was determined as 5.47 ± 0.21. Taken in the same sequence, the figures for GTADGRVVKLENGEIETIARFGSG [APMAP] were 4.66 ± 0.25 and 4.64 ± 0.1.

For the sequence GTGTGPEDGRPSLGSPYGQPPRFP [PDLIM4], the protein stability index turned out to be 4.37 ± 0.21 under setting [1] and 4.53 ± 0.22 under setting [2]. As to GTLVQLLGSDDINVVTCAAGILSN [CTNNB1], the protein stability index was determined as 2.32 ± 0.52 under setting [1] and 2.28 ± 0.12 under setting [2]. For GTTVTFDDLMGILCKSVLEIERAI [FEM1C], the protein stability index worked out at 2.31 ± 0.26 under setting [1] and 2.14 ± 0.42 under setting [2].

In the case of GVDSMAEEGTSDSNTGSESNSATV [SMARCE1], the protein stability index is, setting by setting: under setting [1], 5.41 ± 0.14; under setting [2], 5.57 ± 0.41. Take GVIVANMTEWKHQRITKQLEKWMQ [GLT8D2]: the protein stability index runs as follows: under setting [1], 2.18 ± 0.085; under setting [2], 2.4 ± 0.18. GVNYPKPMVNHAEASRLNIERMKQ [CRY1]: the protein stability index reads like this: under setting [1], 4.2 ± 0.3; under setting [2], 4.11 ± 0.62. Turning to GVTEEQEGFADGFVKALDDLHKMN [JUNB], the protein stability index reads like this: under setting [1], 4.69 ± 0.17; under setting [2], 4.47 ± 0.32. For the sequence GYNWCHDRNVVTIFSAPNYCYRCG [PPP2CA], the protein stability index amounted to 2.4 ± 0.41 under setting [1] and 2.27 ± 0.46 under setting [2]. With GYSTHADFVLEMNTAKSTSRVTAF [NLN], the protein stability index under setting [1] was 2.29 ± 0.2 and the protein stability index under setting [2] was 2.51 ± 0.12.

On to GYSWSMGAYKSSTICYCPEKGTWT [KLHL14], for which the protein stability index by setting is: under setting [1], 2.03 ± 0.26; under setting [2], 2.08 ± 0.34.

For HAGQGGLFYSAEVEMLCDQAWGSM [CCDC3], the protein stability index came to 2.53 ± 0.77 under setting [1] and 2.47 ± 0.39 under setting [2]. The like results for HAQVVEELSNFKSQKVLGLNEDPL [ZBED1] were, in that order, 4.34 ± 0.28 and 4.44 ± 0.32.

For HECGTKYPVEWAKFCCECGIRRMI [ZC2HC1A], the protein stability index under setting [1] turned out to be 2.48 ± 0.3 and the protein stability index under setting [2] was determined as 2.71 ± 0.46. Taken in the same sequence, the figures for HEMREQHDAQVRLYKEELEQTYHA [LMNB1] were 4.08 ± 0.38 and 4.27 ± 0.48.
